Results from PMC3260246.

Experiments:
Assay in all cases: membrane filtration equilibrium binding (Scatchard plot); 12.5 µM wild-type or mutant small heat shock protein incubated 1 hr at 60°C with 2–18 µM γ-crystallin in 50 mM phosphate buffer, 100 mM NaCl, pH 7.2; unbound substrate separated through a 100-kDa cut off Microcon filter; n per subunit of chaperone
[1] = target: wild-type human αB-crystallin (human) (UniProt P02511)
[2] = target: wild-type human αA-crystallin (human) (UniProt P02489)
Chain of wild-type human αA-crystallin (human) (P02489 whole entry): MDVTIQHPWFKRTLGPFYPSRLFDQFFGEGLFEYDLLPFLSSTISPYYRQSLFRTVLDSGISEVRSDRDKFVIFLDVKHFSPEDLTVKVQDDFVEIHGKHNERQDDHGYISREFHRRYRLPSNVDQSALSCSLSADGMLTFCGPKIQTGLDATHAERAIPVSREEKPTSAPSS

[3] = target: αB-crystallin R12A mutant (human) (UniProt P02511)
Chain of αB-crystallin R12A mutant (human) (P02511 whole entry R12A): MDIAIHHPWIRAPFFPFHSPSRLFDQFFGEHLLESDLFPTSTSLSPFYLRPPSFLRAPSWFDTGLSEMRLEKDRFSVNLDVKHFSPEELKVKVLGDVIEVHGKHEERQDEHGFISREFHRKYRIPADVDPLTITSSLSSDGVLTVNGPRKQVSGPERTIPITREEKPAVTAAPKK

[4] = target: Hsp27 R12A mutant (human) (UniProt P04792)
Chain of Hsp27 R12A mutant (human) (P04792 whole entry R12A): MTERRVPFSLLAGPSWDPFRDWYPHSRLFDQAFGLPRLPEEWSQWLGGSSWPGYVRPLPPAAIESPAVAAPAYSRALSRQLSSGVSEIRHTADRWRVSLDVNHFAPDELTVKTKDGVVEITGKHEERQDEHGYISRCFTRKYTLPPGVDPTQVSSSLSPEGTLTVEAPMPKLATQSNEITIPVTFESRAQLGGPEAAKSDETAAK

[5] = target: wild-type human Hsp27 (human) (UniProt P04792)
Chain of wild-type human Hsp27 (human) (P04792 whole entry): as the sequence (P04792 whole entry R12A) above, with A12R counted along it

Chain of bovine γ-crystallin (P02526 whole entry): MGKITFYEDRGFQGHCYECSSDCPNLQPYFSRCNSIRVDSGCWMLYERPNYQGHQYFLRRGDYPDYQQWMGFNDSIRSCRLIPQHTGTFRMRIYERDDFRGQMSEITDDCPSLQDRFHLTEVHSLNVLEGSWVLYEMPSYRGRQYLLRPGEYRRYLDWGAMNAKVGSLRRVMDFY
Chain of wild-type human αB-crystallin (human) (P02511 whole entry): as the sequence (P02511 whole entry R12A) above, with A12R counted along it

bovine γ-crystallin (from UniProt P02526 1-175) (natural protein)
Kd [1]: 2.84 µM | stoichiometry N [1]: 2.34 | stoichiometry N [2]: 3.61 | Kd [3]: 3.24 µM | stoichiometry N [3]: 1.68 | Kd [4]: 5.79 µM | stoichiometry N [4]: 2.87 | Kd [5]: 5.91 µM | stoichiometry N [5]: 2.9
